Holding throughout (assay): two-hybrid library CCmax;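 further: natural log of median RNA to DNA barcode read ratio; higher means stronger binding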
Assay [1] has as its target T1, 4H3094-AA.
T1 chain: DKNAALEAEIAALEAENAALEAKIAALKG
The conditions noted are these: mean of both orientations.

The target of assay [2] is T2, 4H3915-AA.
T2 chain: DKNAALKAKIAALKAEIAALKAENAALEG
The conditions noted are these: mean of both orientations.

The target in assay [3] is T3, 4H3777-AA.
T3 chain: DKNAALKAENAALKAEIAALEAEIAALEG
The conditions noted are these: mean of both orientations.

The target in assay [4] is T4, 4H3365-AA.
T4 chain: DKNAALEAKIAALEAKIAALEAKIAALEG
The conditions noted are these: mean of both orientations.

Assay [5] concerns the target T5, 4H3705-AA.
T5 chain: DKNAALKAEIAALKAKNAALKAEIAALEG
The conditions noted are these: mean of both orientations.

Assay [6] concerns the target T6, 4H1802-AA.
T6 chain: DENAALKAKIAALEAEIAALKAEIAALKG
The conditions noted are these: mean of both orientations.

In assay [7] the target is T7, 4H391-AA.
T7 chain: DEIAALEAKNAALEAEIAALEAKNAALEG
The conditions noted are these: mean of both orientations.

For assay [8], the target named is T8, 4H2991-AA.
T8 chain: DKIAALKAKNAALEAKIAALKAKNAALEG
The conditions noted are these: mean of both orientations.

Assay [9] deals with T9, 4H146-AA.
T9 chain: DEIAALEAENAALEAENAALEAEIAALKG
The conditions noted are these: mean of both orientations.

Assay [10] concerns the target T10, 4H3709-AA.
T10 chain: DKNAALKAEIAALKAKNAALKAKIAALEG
The conditions noted are these: mean of both orientations.

Assay [11] concerns the target T11, 4H1348-AA.
T11 chain: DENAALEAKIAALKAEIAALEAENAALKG
The conditions noted are these: mean of both orientations.

In assay [12] the target is T12, 4H2248-AA.
T12 chain: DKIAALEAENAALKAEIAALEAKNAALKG
The conditions noted are these: mean of both orientations.

For assay [13], the target named is T13, 4H1064-AA.
T13 chain: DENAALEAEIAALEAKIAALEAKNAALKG

Assay [14] deals with T14, 4H2713-AA.
T14 chain: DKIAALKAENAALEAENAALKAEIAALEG
The conditions noted are these: mean of both orientations.

The target in assay [15] is T15, 4H2512-AA.
T15 chain: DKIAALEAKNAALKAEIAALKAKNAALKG
The conditions noted are these: mean of both orientations.

For assay [16], the target named is T16, 4H55-AA.
T16 chain: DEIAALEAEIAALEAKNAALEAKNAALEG
The conditions noted are these: mean of both orientations.

The target in assay [17] is T17, 4H2935-AA.
T17 chain: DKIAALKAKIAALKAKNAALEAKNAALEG
The conditions noted are these: mean of both orientations.

Assay [18] deals with T18, 4H87-AA.
T18 chain: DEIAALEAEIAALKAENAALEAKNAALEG
The conditions noted are these: mean of both orientations.

Assay [19] deals with T19, 4H2687-AA.
T19 chain: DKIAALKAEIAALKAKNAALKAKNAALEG
The conditions noted are these: mean of both orientations.

Assay [20] deals with T20, 4H2148-AA.
T20 chain: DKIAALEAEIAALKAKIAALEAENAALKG
The conditions noted are these: mean of both orientations.

The target in assay [21] is T21, 4H733-AA.
T21 chain: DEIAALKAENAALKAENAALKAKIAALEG
The conditions noted are these: mean of both orientations.

The target of assay [22] is T22, APC6108-AA.
T22 chain: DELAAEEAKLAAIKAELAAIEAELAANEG
The conditions noted are these: mean of both orientations.

For assay [23], the target named is T23, 4H2458-AA.
T23 chain: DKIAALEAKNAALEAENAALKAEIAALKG
The conditions noted are these: mean of both orientations.

The target in assay [24] is T24, 4H716-AA.
T24 chain: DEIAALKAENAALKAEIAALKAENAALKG
The conditions noted are these: mean of both orientations.

In assay [25] the target is T25, APC9096-AA.
T25 chain: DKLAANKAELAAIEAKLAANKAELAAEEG
The conditions noted are these: mean of both orientations.

The target of assay [26] is T26, 4H2447-AA.
T26 chain: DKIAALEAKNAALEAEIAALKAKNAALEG
The conditions noted are these: mean of both orientations.

Assay [27] concerns the target T27, APC1434-AA.
T27 chain: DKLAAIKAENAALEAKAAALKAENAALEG
The conditions noted are these: mean of both orientations.

The target of assay [28] is T28, P5-AA-12HGe-H.
T28 chain: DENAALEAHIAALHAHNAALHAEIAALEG
The conditions noted are these: mean of both orientations.

Assay [29] addresses T29, P5-AA-1HGe-A.
T29 chain: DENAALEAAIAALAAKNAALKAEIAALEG
The conditions noted are these: mean of both orientations.

The target in assay [30] is T30, P5-AA-1HGe-Y.
T30 chain: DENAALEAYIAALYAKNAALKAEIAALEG
The conditions noted are these: mean of both orientations.

The target of assay [31] is T31, P5-AA-1HAA-D.
T31 chain: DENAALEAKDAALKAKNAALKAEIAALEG
The conditions noted are these: mean of both orientations.

Assay [32] concerns the target T32, P5-AA-1HAA-E.
T32 chain: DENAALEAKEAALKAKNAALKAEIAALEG
The conditions noted are these: mean of both orientations.

Assay [33] has as its target T33, P5-AA-12HGe-R.
T33 chain: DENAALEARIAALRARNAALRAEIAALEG
The conditions noted are these: mean of both orientations.

In assay [34] the target is T34, P6-AA-12HAA-R.
T34 chain: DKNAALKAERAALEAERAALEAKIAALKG
The conditions noted are these: mean of both orientations.

Assay [35] has as its target T35, P6-AA-12HAA-H.
T35 chain: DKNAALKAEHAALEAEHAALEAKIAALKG
The conditions noted are these: mean of both orientations.

The target in assay [36] is T36, O8-AA.
T36 chain: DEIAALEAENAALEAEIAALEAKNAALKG
The conditions noted are these: mean of both orientations.

For assay [37], the target named is T37, O4-AA.
T37 chain: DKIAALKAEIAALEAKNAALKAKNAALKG
The conditions noted are these: mean of both orientations.

Assay [38] concerns the target T38, P6-AA-12HGe-R.
T38 chain: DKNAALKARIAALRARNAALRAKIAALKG
The conditions noted are these: mean of both orientations.

Assay [39] addresses T39, P6-AA-12HGe-M.
T39 chain: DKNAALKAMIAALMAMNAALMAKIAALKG
The conditions noted are these: mean of both orientations.

Assay [40] deals with T40, P6-AA-1HGe-S.
T40 chain: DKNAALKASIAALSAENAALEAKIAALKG
The conditions noted are these: mean of both orientations.

In assay [41] the target is T41, P6-AA-1HGe-D.
T41 chain: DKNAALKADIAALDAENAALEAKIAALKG
The conditions noted are these: mean of both orientations.

The target in assay [42] is T42, 4H2219-AA.
T42 chain: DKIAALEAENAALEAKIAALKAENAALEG
The conditions noted are these: mean of both orientations.

This passage reports interaction score results from PMC10397247.

DEIAALEAENAALKAKNAALKAEIAALEG [4H249-AA]: the interaction score is -0.0288 in [1], -0.705 in [2] and -0.457 in assay [3].

Regarding DENAALEAENAALKAKIAALKAEIAALEG [4H1257-AA], the interaction score is -1.46 in assay [4], -1.52 in [5] and -1.38 in [6].

Turning to DENAALEAEIAALEAKIAALEAKNAALKG [4H1064-AA], the interaction score in assay [7] is -1.37; in assay [8], -0.846; in [9], -1.5; in assay [10], -0.57; in assay [11] it was 1.13; in [12], -1.34. Moreover, the interaction score is 0.0437 in assay [13] and -1.48 in assay [14].

Turning to DENAALEAKIAALKAEIAALEAKIAALKG [4H1350-AA], the interaction score in assay [15] was -0.538; in assay [16], -1.11; in assay [17], -0.765; in assay [18], -0.16; in [19] it was -0.889.

For the molecule DENAALKAKIAALEAKNAALEAKIAALEG [4H1845-AA], the interaction score in [20] was -1.61; in [21], -1.33; in [22] it was -2.14; in [23], -1.6; in [24], -1.81; in assay [25], -2.08. Besides, the interaction score in assay [26] was -1.57; in assay [27], -1.56.

As to DKNAALKAEIAALEAENAALEAKIAALKG [4H3606-AA], the interaction score in assay [28] came to 1.86; in [29], 2.06; in [30], 2.36; in [31], 1.43; in assay [32], 1.24; in assay [33], 1.65.

DENAALEAKIAALKAKIAALKAEIAALEG [4H1385-AA]: the interaction score in assay [34] came to 1.72; in assay [35], 1.75.

DEIAALEAENAALEAKIAALKAENAALEG [4H171-AA]: the interaction score in [36] was 0.645; in assay [37] it was -0.185.

As to DENAALEAKIAALKAKNAALKAEIAALEG [4H1401-AA], the interaction score in [38] is -1.02; in [39] it was 0.2; in [40], 2.27; in assay [41], 1.88.

On to DENAALKAEIAALKAENAALKAEIAALKG [4H1626-AA], for which, in [42], the interaction score was -1.54.
